Source: the supplement of paper PMC9170038

System: MS2 coat protein
Assay: apparent KD of MS2 coat protein; designed switch direction (-1 OFF switch, 1 ON switch): -1; higher = weaker reporter binding
Method in brief: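 Normalised cluster fluorescence was curve-fitted, and each design's median over clusters is its apparent KD. Before this, SNAP-549-labelled MS2 coat protein was titrated from 0.7 or 1.5 nM, doubling to 3 µM, over RNA switches transcribed on Illumina chips by stalled E. coli RNA polymerase. Titrations had no input, 200 uM small-molecule ligand, or an oligonucleotide input, and steps lasted 0.8–1.5 h (lowest) to 10–20 min (highest).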

[1] = Eterna round: R95, input ligand: FMN 200 uM
[2] = Eterna round: R95, input ligand: microRNA oligo, concentration not stated
[3] = Eterna round: R95, input ligand: none
[4] = input ligand: microRNA oligo, concentration not stated

Sequence	apparent KD of MS2 coat protein [1] [nM]	apparent KD of MS2 coat protein [2] [nM]	apparent KD of MS2 coat protein [3] [nM]	apparent KD of MS2 coat protein [4] [nM]	apparent KD of MS2 coat protein (input ligand: FMN 200 uM) [nM]	apparent KD of MS2 coat protein (input ligand: none) [nM]
UAUUAUCAAGCAAGAUCCUACAUGAGGAUCACCCAUGUGCUCGUCUUAUAAGGUACUGUGACGAAAGUCACGGUACC [Sensor 3, v1 - 73] (puzzle: Sensor v3, turn-off variant 1)	107	107	153			
GACGUGUGAGGAUAUGCCGUGCCGGUCCGGAAGGUUCGGGUGCAGAAGGCACAUGAGGAUCACCCAUGUGUAAG [Excls4-VI] (puzzle: Exclusion 4)		17.7				
AAAAUACAUGAGGAUCACCCAUGUCAGGAUAUGCUAAAAAAAAAAUUAAAAAAAAAAUGUAGAAGGGACUAAAA [Exclusion Z2] (Eterna round: R96, puzzle: Exclusion 1)				71.6		
AUAAUGUGAGGAUAUCAGUCGACUAGCUGCGGCUAGUCGACUGAGAAGGUACAUGAGGAUCACCCAUGUGGUUC [E4/11-B3] (Eterna round: R97, puzzle: Exclusion 4)					904	434
AAACUCCCAACCACCGGGAACAUGAGGAUCACCCAUGUGGCGUGACUCAUACGGGCUUUUUGUUCGUUUUAUUCACG [Soesesqu] (puzzle: Sensor v3, turn-off variant 1)	69	20.1	72.5			
GAUCUGAUAGGAUAUACAUGAGGAUCACCCAUGUGCGAGCUAGCGAAAGCUAGCUCAGGUAGAAGGGUCAGAUC [Ex3 dot plot directed v2] (puzzle: Exclusion 3)		11.7				
GGAUAUAACGUAGGAUAUGAGAGAAACAGACGAUCAGAAGGACGACAUGAGGAUCACCCAUGUGAUCUAUCAAUAUUAUACAUG [Prohibition 97 - Jieux - Exclusion NG 1] (Eterna round: R96, puzzle: Exclusion NG 1)				180	446	300
ACAUGAGGAUCACCCAUGUACACGUAAUGGCUCAUGUAGAGUCAGGAUAUGCGUGGCGAACUCGCGCAGAAGGGACAAGACUGG [Deportation 21 - Jieux - Exclusion NG 3] (Eterna round: R96, puzzle: Exclusion NG 3)				18.6	27.1	23
UUAUUAAGUGUGAGGAUAUGCUGGUCCUUGGAUCAGCAGAAGGCACAUGAGGAUCACCCAUGUACAAUAUAUUA [Mat - Exclusion 4 - JL Mod - D30] (puzzle: Brourd's mod of Exclusion 4)		38.7				
CAUACUGAAGUUAGGAUAUUCGGACGUAUACGGAUGGAGAAGGGACAUGAGGAUCACCCAUGUAGAUAGUAAAG [EX-4 Malc #12] (puzzle: Brourd's mod of Exclusion 4)	22.7	23.1	22.3			
AUGUGCACGCUGCGGUCCUACAUGAGGAUCACCCAUGUGGUCUGGUGGCGUGGGUCACCGGACUUGGCUCGUCUUGU [salish99_S_TOV1_R5_056] (Eterna round: R97, puzzle: Sensor, turn-off variant 1)					33.7	40.1
CAGUACUGAGGAUAUACAUGAGGAUCACCCAUGUGUUCCAGCUAGGAGACUAGCAAAAGUAGAAGGCAGUACUG [salish99_ex3_r3_074] (puzzle: Exclusion 3)		23.5				
AUUAAAUAAGGAUAUACAUGAGGAUCACCCAUGUGUAGCAAGGUGUUGCGAUCCGCAAGUAGAAGGUGUAUAAU [Eternabot (L2) Solution 2] (Eterna round: R97, puzzle: Exclusion 3)					49.6	32
AGCCAAGCAGGAUAUGCCCGGGAUAACAUGAGGAUCACCCAUGUGACCGAUUGAUGUCCUGCAGAAGGGCUUGGGA [Erxesoan] (Eterna round: R96, puzzle: Exclusion 5)				11.4	82.4	16.9
UGUUGUCGCGCAGGAUAUGUAUGAGGAUCACCCAUUAAUAAAUUUUAACCACGAGGAUCACCCGUGUAGAAGGGCGGGACAACA [pwkr exNG2 2xF5 1xFMN.15] (Eterna round: R96, puzzle: Exclusion NG 2)				18.3	30.8	29.5
CCUCCCGCCGUCAGGAUAUGCCGUACCGCUGCGCUCCAGAAGGCACUUGAGGAUCACCCAAGUACCCGUGAGGC [salish99_bmod_ex4_r4_009] (Eterna round: R97, puzzle: Brourd's mod of Exclusion 4)					16	16.1
GUCCUGCAGCUUUGCUGUAGGCGUACAUGAGGAUCACCCAUGUAGGAUAUGGUAGGCUUUGCUUACUAGAAGGAUAGAGUGAUC [JL EXNG3 1.28] (Eterna round: R96, puzzle: Exclusion NG 3)				7.08	43.1	38.4
AAAAAACAAGGAUAUACGCACGAGGAUUGUCUUAAUUUUUGACAUGAGGAUCACCCAUGUAGAAGGUGUUAAAA [JR_Exclusion2_Sub014] (puzzle: Exclusion 2)		76.5				
GGAUCUUGGGUCAGGAUAUGCUGAUAGUUAUGUCAGCAGAAGGGACAUGAGGAUCACCCAUGUGCUUGGUUUUG [Magic-17] (Eterna round: R96, puzzle: Brourd's mod of Exclusion 4)				12.7	40.9	17.2
AAUAACAAGUAGAUCCUAAACAUGAGGAUCACCCAUGUGCUCGUCUUGUAAAGUACUAUCACGAAAGUGAUAGUACA (Eterna round: R97, puzzle: Sensor, turn-off variant 1)					84.5	85.2
GCUAUUAGAGGAUAUACAUGAGGAUCACCCAUGUGGUCAAGUCGGUGCCAACUGUUAGGUAGAAGGCUGGAGCC [Eternabot (L1) Solution 76] (Eterna round: R97, puzzle: Exclusion 3)					44.8	49.7
GGAUAAAAGACAGGAUAUGAGGAGAGAGAGAGAUCAGAAGGGUCACAUGAGGAUCACCCAUGUGAGUUCUCGAUAAGAAACACG [Prohibition 54 - Jieux - Exclusion NG 1] (Eterna round: R96, puzzle: Exclusion NG 1)				12.7	15.5	18.4
AGUACUAUCACGAAAGUGAUAGUACAAUUGAGCUUUUGAACAUGAGGAUCACCCAUGUCCUCAUAAGCUCGUCUUAA [Mat - Sensor v2 - var 2 - Mod - D171] (Eterna round: R96, puzzle: Sensor v2, turn-off variant 2)				496	28.7	30.5
AGGGCACAUGAGGAUCACCCAUGUGAGGAUAUCCCGGUACUAUCGAUGUAGUAAUCGUGGAGAAGGCACACGAC [EX1 C.21] (Eterna round: R97, puzzle: Exclusion 1)					90.3	62.6
AGCGCGUUCUAGGAUAUCCGGUGGGACACAUACGGAGAAGGAGAAACAUGAGGAUCACCCAUGUAUGGAGAUCG [Eternabot (L1) Solution 7] (Eterna round: R97, puzzle: Exclusion 6)					309	102
AGUAGAUCUACGCUUGCGUGGAUCUGCUAUGCAGGUGUUACAUGAGGAUCACCCAUGUCCUCGUUUGCUCGUCUUAU [JL turnoff v2 99.13] (puzzle: Sensor v3, turn-off variant 2)	333	693	448			
GGCAAACAUGAGGAUCACCCAUGUCAGGAUAUUAGGCGAUCGUCGAUAGACGAUAGCCUGAGAAGGGACAUGCC [Mat - Exclusion 1 - Eli Mod - D16] (Eterna round: R97, puzzle: Exclusion 1)					391	85.2
CGGAGACAUGAGGAUCACCCAUGUGAGGAUAUGGCGUGCGCUACUAAAGGUGGUUGCUCCAGAAGGCGCGGUGU [Eternabot (L1) Solution 3] (Eterna round: R97, puzzle: Exclusion 1)					74.5	65.2
UCGGGAAGAGGAUAUACAUAGAAAUAGAUUCAUGUAAAACUACAUGAGGAUCACCCAUGUAGAAGGCUUUCCGU [Mat - Exclusion 2 - JL Mod - D55] (Eterna round: R97, puzzle: Exclusion 2)					146	24.2
CAAUAACAAGCGAGAUCCUACAUGAGGAUCACCCAUGUGCUCGUCUUAUAAGGUACUGUGACGAUAGUCACGGUACC [Mat - Sensor, turn-off var - Eli Mod - D97] (Eterna round: R97, puzzle: Sensor, turn-off variant 1)					18.9	19.6
